Assay results reported in patent US20080301824A1 (CEDARS SINAI MEDICAL CENTER, published 2008).

Assays:
[1] = biological target: T1, GAL4 binding domain-NF2 fusion encoded by pGBT9-NF2 (schwannomin tumor suppressor) (UniProt P04386 1-147; P35240 1-595, limits assumed); assay: yeast two-hybrid filter assay
T1 construct: also called pGBT9-NF1
Protocol: (§1) As previously described (Shibata et al., Hum. Mol. Genet. 9:1303-1313 (2000) and Scoles et al., Nat. Genet. 18:354-359 (1998)), the bait plasmid was cotransformed in yeast strain Y190 and grown on synthetic media without leucine, tryptophan, and histidine, and with 25 mM 3-amino-1,2,4-triazole and 2% glucose. The Y190 strain allows for nutritional selection of the HIS3 gene that allows growth in media lacking histidine and color selection using the LacZ gene encoding β-galactosidase. The β-galactosidase reporter was assayed on stamped nitrocellulose filters by incubating freeze-fractured colonies in Z-buffer (60 mM Na₂HPO₄, 40 mM NaH₂PO₄, 10 mM KCl, 1 mM MgSO₄, pH 7.0, 0.03 mM β-mercaptoethanol, and 2.5 μM X-gal) at 37° C. for 15 min to 8 hr. Positive clones were restreaked on synthetic media without leucine or tryptophan, and retested for β-galactosidase activity, and then pGAD10. “prey” plasmids were isolated.

[2] = biological target: T2, GAL4 binding domain alone (pGBT9 vector control) (UniProt P04386 1-147); assay: yeast two-hybrid filter assay
T2 construct: Empty bait vector control; also called negative control vector pGBT9
Protocol: as §1

[3] = biological target: T3, GAL4 binding domain-Hrs fusion encoded by pGBT9-Hrs (hepatocyte growth factor regulated kinase substrate) (UniProt P04386 1-147; O14964 1-777, limits assumed); assay: yeast two-hybrid filter assay
T3 construct: Unrelated bait control
Protocol: as §1

[4] = biological target: GAL4 binding domain-parkin(1-465) fusion encoded by pGBT9-parkin(1-465) (UniProt P04386 1-147; O60260 1-465); assay: cell-based or functional assay
[5] = biological target: T4, endogenous parkin of PC12 cells (UniProt Q9JK66 1-465); assay: co-IP with mouse anti-syt1 from PC12 extracts
T4 construct: also called 50 kDa parkin band
T4 sequence (looked up): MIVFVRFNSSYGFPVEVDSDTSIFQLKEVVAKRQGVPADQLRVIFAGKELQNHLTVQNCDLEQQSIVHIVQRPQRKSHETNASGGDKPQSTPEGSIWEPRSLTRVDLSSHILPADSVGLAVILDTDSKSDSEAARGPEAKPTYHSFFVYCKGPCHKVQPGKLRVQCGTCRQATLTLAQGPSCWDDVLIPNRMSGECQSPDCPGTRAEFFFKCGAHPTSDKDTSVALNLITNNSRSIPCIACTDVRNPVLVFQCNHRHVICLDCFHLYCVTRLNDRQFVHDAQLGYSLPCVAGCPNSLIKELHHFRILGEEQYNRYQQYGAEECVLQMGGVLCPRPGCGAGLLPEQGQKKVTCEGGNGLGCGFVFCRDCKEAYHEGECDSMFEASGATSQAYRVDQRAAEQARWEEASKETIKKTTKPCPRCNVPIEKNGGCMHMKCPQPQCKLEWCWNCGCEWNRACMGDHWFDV

[6] = biological target: endogenous parkin of human cerebral cortex (human, UniProt O60260 1-465, limits assumed); assay: co-IP from human cerebral cortex extract
[7] = biological target: T5, hemaglutinin-parkin (HA-parkin), full-length wild type (UniProt O60260 1-465); assay: co-IP
T5 construct: also called pCMV-HA-parkin

[8] = biological target: T6, GFP-syt11 (GFP-tagged full-length human synaptotagmin XI) (human, UniProt P42212 1-238 = GFP); assay: co-IP with anti-HA agarose from HEK293 cells, anti-GFP blot
T6 construct: also called GFP-sytXI; GFP-sytxI
Protocol: To determine which domain of parkin binds to synaptotagmin, several truncated parkins tagged with the HA epitope were constructed (FIG. 3A). […] Each truncated construct was coexpressed with GFP-sytxI. After 24 h, protein extracts were immunoprecipitated with rat anti-HA-conjugated agarose followed by western blot detection with anti-GFP antibody.

B1: GAL4 activation domain-MP23a fusion (partial clone of human synapsin-like protein, SLP, in pGAD10) (other, not shown: large carriers)
chain: SFSSSPPPGPPRIAAAAFSSPGRCGCGCPCHLLTAEPPTQDGGRLSLGPEQNLGPHPQKPGCKRAAPTYESCIKFPTRLRFIRLEVEQHHLVDIVAVTTKTGKTEATPHGMRLMNELLQPGCQGSEEKPLRPCFLIISYA
notes: also called SLP (MP23a)
Does B1 bind [1]?
Result: no binding

Does B1 bind [2]?
Result: no binding

Does B1 bind [3]?
Result: no binding

What about the “β-galactosidase activity in yeast two-hybrid liquid assay, against negative control vector pGBT9” value [4] of the same binder?
The value was ~30 fold.

B2: endogenous synaptotagmin 1 of PC12 cells (other, UniProt P21707 1-421, looked up)
chain: MVSASHPEALAAPVTTVATLVPHNATEPASPGEGKEDAFSKLKQKFMNELHKIPLPPWALIAIAIVAVLLVVTCCFCVCKKCLFKKKNKKKGKEKGGKNAINMKDVKDLGKTMKDQALKDDDAETGLTDGEEKEEPKEEEKLGKLQYSLDYDFQNNQLLVGIIQAAELPALDMGGTSDPYVKVFLLPDKKKKFETKVHRKTLNPVFNEQFTFKVPYSELGGKTLVMAVYDFDRFSKHDIIGEFKVPMNTVDFGHVTEEWRDLQSAEKEEQEKLGDICFSLRYVPTAGKLTVVILEAKNLKKMDVGGLSDPYVKIHLMQNGKRLKKKKTTIKKNTLNPYYNESFSFEVPFEQIQKVQVVVTVLDYDKIGKNDAIGKVFVGYNSTGAELRHWSDMLANPRRPIAQWHTLQVEEEVDAMLAVKK
notes: also called syt1; endogenous syt1
Does B2 bind [5]?
Result: binds

B3: endogenous synaptotagmin XI of human brain (other)
chain: MAEITNIRPSFDVSPVVAGLIGASVLVVCVSVTVFVWSCCHQQAEKKHKNPPYKFIHMLKGISIYPETLSNKKKIIKVRRDKDGPGREGGRRNLLVDAAEAGLLSRDKDPRGPSSGSCIDQLPIKMDYGEELRSPITSLTPGESKTTSPSSPEEDVMLGSLTFSVDYNFPKKALVVTIQEAHGLPVMDDQTQGSDPYIKMTILPDKRHRVKTRVLRKTLDPVFDETFTFYVIPYSQLQDLVLHFLVLSFDRFSRDDVIGEVMVPLAGVDPSTGKVQLTRDIIKRNIQKCISRGELQVSLSYQPVAQRMTVVVLKARHLPKMDITGLSGNPYVKVNVYYGRKRIAKKKTHVKKCTLNPIFNESFIYDIPTDLLPDISIEFLVIDFDRTTKNEVVGRLILGAHSVTASGAEHWREVCESPRKPVAKWHSLSEY
notes: Endogenous protein; also called endogenous sytXI; sytXI protein band
Does B3 bind [6]?
Result: binds

B4: full length synapsin-like protein (SLP), GFP fusion (other)
chain: MAQHIQLPGVKALVYVCFTAVLGHSVGWHRGHFGQHGLGRGAVRTRLWIRPGHATFLGQRRAGHQCRFPGSRRRQLLKEPKPSPAAPSSFSSSPPPGPPRIAAAAFSSPGRCGCGCPCHLLTAEPPTQDGGRLSLGPEQNLGPHPQKPGCKRAAPTYESCIKFPTRLRFIRLEVEQHHLVDIVAVTTKTGKTEATPHGMRLMNELLQPGCQGSEEKPLRPCFLIISYA
notes: the construct is inferred; also called the full length protein; not shown: green fluorescent protein (GFP)
Does B4 bind [7]?
Result: binds

B5: HA-tagged truncated parkin p1-203 (enzyme, UniProt O60260 1-203, looked up, not shown: small tags and cut ends)
chain: MIVFVRFNSSHGFPVEVDSDTSIFQLKEVVAKRQGVPADQLRVIFAGKELRNDWTVQNCDLDQQSIVHIVQRPWRKGQEMNATGGDDPRNAAGGCEREPQSLTRVDLSSSVLPGDSVGLAVILHTDSRKDSPPAGSPAGRSIYNSFYVYCKGPCQRVQPGKLRVQCSTCRQATLTLTQGPSCWDDVLIPNRMSGECQSPHCPG
Does B5 bind [8]?
Result: no binding

B6: HA-tagged truncated parkin p294-385 (enzyme, UniProt O60260 294-385, looked up, not shown: small tags and cut ends)
chain: PNSLIKELHHFRILGEEQYNRYQQYGAEECVLQMGGVLCPRPGCGAGLLPEPDQRKVTCEGGNGLGCGFAFCRECKEAYHEGECSAVFEASG
notes: range 294-385
Does B6 bind [8]?
Result: no binding

B7: HA-tagged truncated parkin p294-465 (enzyme, UniProt O60260 294-465, looked up, not shown: small tags and cut ends)
chain: PNSLIKELHHFRILGEEQYNRYQQYGAEECVLQMGGVLCPRPGCGAGLLPEPDQRKVTCEGGNGLGCGFAFCRECKEAYHEGECSAVFEASGTTTQAYRVDERAAEQARWEAASKETIKKTTKPCPRCHVPVEKNGGCMHMKCPQPQCRLEWCWNCGCEWNRVCMGDHWFDV
Does B7 bind [8]?
Result: no binding
